Assay results from publication PMC4919205.

Target: TRPV6_(CysKO) D34C-R631C double mutant (rat) (UniProt Q9R186)
Assay: cross-linking

Substance: TRPV6_(CysKO) D34C-R631C double mutant (from UniProt Q9R186 1-668) (natural protein)
- stoichiometry N: 4
